From patent publication US20160053277A1, “Compositions Having Dicamba Decarboxylase Activity and Methods of Use” (PIONEER HI-BRED INTERNATIONAL, INC., priority 2013, published 2016)

B1: 105 (protein)
chain: MAIDFHVHLDLYPDPVAVARACEERQLTVLSVTTTPAAWRGTLALAAGRPHVWTALGFHPEVVSERAADLPWFDRYLPETRFVGEVGLDGSPSLRGTWTQQFAVFQHILRRCEDHGGRILSIHSRRAESEVLNCLEANPRSGTPILHWYSGSVTELRRAISLGCWFSVGPTMVRTQKGAALIRSMPRDRVLTETDGPFLELDGQAALPWDVKSVVEGLSKIWQIPASEVERIVKENVSRLLGTVR
modifications: Deinococcus radiodurans
B2: 103 (protein)
chain: MAMEIPTEEIKFLKKEDVQNIDLNGMSKKERYEIWRRIPKVELHCHLDLTFSAEFFLKWARKYNLQPNMSDDEILDHYLFTKEGKSLAEFIRKAISVSDLYRDYDFIEDLAKWAVIEKYKEGVVLMEFRYSPTFVSSSYGLDVELIHKAFIKGIKNATELLNNKIHVALICISDTGHAAASIKHSGDFAIKHKHDFVGFDHGGREIDLKDHKDVYHSVRDHGLHLTVHAGEDATLPNLNTLYTAINILNVERIGHGIRVSESDELIELVKKKDILLEVCPISNLLLNNVKSMDTHPIRKLYDAGVKVSVNSDDPGMFLSNINDNYEKLYIHLNFTLEEFMIMNNWAFEKSFVSDDVKSELKALYF
modifications: Plasmodium yoelii yoelii
B3: 12 (protein, listed as Zymoseptoria tritici)
chain: MALGKVAFEEAFALPRFKERTTWWAGLFAVDPEKHTREINDINKLRIEKMDQFGVGYTLLSYTAPGVQDVWQQEEADALAREVNDHVAAEIKGHEDRLGALATLSMHDPQTASAELRRCIKDYGFKGALVNDTQRNDESGTGMIFYDGPEWDVFWSTVQELDVPFYLHPRNPTGVFMEKLWAPRKWLVGPPLSFAQGVSLHLLGMVTNGTFDRFPNLQVIIGHLGEHLPFDLWRINHWFEDIKKPLGLDCKKTIREYFNENIWITTSGHFSTPTLEYCIKEIGAERILFSIDYPFEKFEDACDWYDGVELDGPDTVKKIGRENAKKLFKLGAFKDDSA
B4: 106 (protein, listed as Pyrococcus horikoshii)
chain: MAGMKFIKNLHVSKLVIDSMKALINGTIYTSFNPLKKVSGLVISHGKVIYAGDSEVAKKIVELSGGEIVDLKGKYVMPAFFDSHLHLDELGMSLEMVDLRGAKSIEELIQRLKRGKGRIIFGFGWDQDELGEWPTRKELNAIDKPVFIYRKCFHVAVANDKMLELLNLTPSKDFDEDTGIIKEKSLEEARKVINERVLTVEDYVYYIKRAQEHLLDLGVKSVSFMSVNEKALRALFYLEREGKLSINVFAYVTPEVLDKLESIGLGRFQGNRLTIAGVKLFTDGSLGARTALLSKPYSDDPSTSGQLVMEREELIRITEKARSLGLDVAIHAIGDKALDVALDVFETTGFPGRIEHASLVRDDQLERVKNLKVRLSVQPHFIISDWWIVERVGEERVKWVYRFKDLMKVAELGFSTDSPIEPADPWLTVDAAVNRGKGKVKLYELTKDQALDIKDALHSYTYGSARVSLASDIGKLEPGFKAEYIILDRDPLVVK
B5: 8 (protein, listed as Metarhizium anisopliae)
chain: MARGKINFEEAFELPTLADSSREQAALYIAPKDLDRYIYHIKHPLGERLQLANSHGIGYTIYSLTVPGIQGIPDQSKAEQHATTVNDWIANEIKDHRDRLGAFAALSMHDAAQAAAELERCVRQHGFHGALLNNYQHAGPDGETYLFYDQPAYDVFWQKCVELDVPVYLHPAAPAGNYYKQMYAQRKYLVGPPLSFANDVSLHLLGLVTNGVFDRFPKLKVVVGHLGEHIPFDFWRISHWLEDVERPLAAGRGDVMSKKDLLYYFKNNIWVTTSGHFSTPTVRYVADYLGPERIMFSVDTPYETIENGVGWFDGEEDALTRALGGEDGYKKVARENAKKLFKLTKYHDCDA
B6: 101 (protein, listed as Aquifex aeolicus)
chain: MAQKIALCITGASGVIYGIKLLQVLEELDFSVDLVISRNAKVVLKEEHSLTFEEVLKGLKNVRIHEENDFTSPLASGSRLVHYRGVYVVPCSTNTLSCIANGINKNLIHRVGEVALKERVPLVLLVREAPYNEIHLENMLKITRMGGVVVPASPAFYHKPQSIDDMINFVVGKLLDVLRIEHNLYKRWRG
B7: 9 (protein, listed as Octadecabacter antarcticus)
chain: MATPKITFEEHFMAPGFEKHSEAFLKLIPRDQAEILTRRLGDFDGERIETMDRGGITRSIISLTGPGTQGEAVEKAVSAAQGANDFLAEKISKKPDRLGGLATLPMHDPDAAARELNRAVNDLGLQGCLVNTHTHGAYYEGTDYDPFWAEVEKLGVPFYLHPSNAYVTPHVLGGMPVLQGATWGWGVETGSHALRILFGGVFDRFPDVKLVLGHMGEALPFLRWRYDSRFGAYPMGVSLDRAPSAYFGSNILITTSGVCSHPSLIGAIGEMGADAVMFSVDYPYEDTDLAVEFIETAPLEDATRVKICHDNAARLFGMPTLAAKEGA
B8: 104 (protein)
chain: MANILQEPIDFLKKEELKNIDLSQMSKKERYKIWKRIPKCELHCHLDLCFSADFFVSCIRKYNLQPNLSDEEVLDYYLFAKGGKSLGEFVEKAIKVADIFHDYEVIEDLAKHAVFNKYKEGVVLMEFRYSPTFVAFKYNLDIELIHQAIVKGIKEVVELLDHKIHVALMCIGDTGHEAANIKASADFCLKHKADFVGFDHGGHEVDLKEYKEIFDYVRESGVPLSVHAGEDVTLPNLNTLYSAIQVLKVERIGHGIRVAESQELIDMVKEKNILLEVCPISNVLLKNAKSMDTHPIRQLYDAGVKVSVNSDDPGMFLTNINDDYEELYTHLNFTLEDFMKMNEWALEKSFMDSNIKDKIKNLYF
modifications: Plasmodium Vivax
B9: 102 (protein, listed as Lactobacillus plantarum)
chain: MATKTFKTLDDFLGTHFIYTYDNGWEYEWYAKNDHTVDYRIHGGMVAGRWVTDQKADIVMLTEGIYKISWTEPTGTDVALDFMPNEKKLHGTIFFPKWVEEHPEITVTYQNEHIDLMEQSREKYATYPKLVVPEFANITYMGDAGQNNEDVISEAPYKEMPNDIRNGKYFDQNYHRLNK
B10: 11 (protein)
chain: MALGKIALEEAFALPRFEEKTRWWASLFSVDPETHVKEITDINKLRIEHADKYGVGYQILSYTAPGVQDIWDPVEAQALAVEINDYIAEQIRDKPDRFGAFATLSMHNPQEAASELRRCVQTYGFKGALVNDTQRAGPDGDDMIFYDNASWDIFWQTCTELDVPLYLHPRNPTGTIYEKLWADRKWLVGPPLSFAQGVSLHVLGMVTNGVFDRHPNLQLIMGHLGEHVPFDMWRINHWFEDRKKLLGLAETCKKTIREYFAQNIWITTSGHFSTTTLNFCMAEVGVDRILFSIDYPFETFEDACVWFDGAELNLSDKAKIGRDNAARLFKLGAFRDYDAKVKA
modifications: Aspergillus niger
B11: 7 (protein, listed as Legionella pneumophila)
chain: MAIVDFETHFITEACIDYLTQRQEVPKLVPELNGAYTMCFTPDVSLFHTSALMEELLSLNEQRLAIMDQAGVTIQVLSLTTINGIDSCPGDENKSTALAREVNDQLYSAIQRHPERFKGFASISPYDVKEGVKELERAISQLGFVGWLTHSNFGEDNYLDDKTYWPLLEAAEGLNIPIYLHPNVPIMREFGKYGFALGGSALGFEFDTALCLMRMILGGVFDAFPKLKIMLGHLGETMPFLMERLDHLYRIPDLKAYRPSIQRIPSEVLRQNVYITTSGRFFVPALRYVLEVMGEDRVLFASDYPMESLLDATRFIQDSDLSNQTKQKIFSINAKNLNLI
B12: 107 (protein, listed as Rhodopseudomonas palustris)
chain: MAIIDIHGHYTTAPKALEDWRNRQIAGIKDPSVMPKVSELKISDDELQASIIENQLKKMQERGSDLTVFSPRASFMAHHIGDFNVSSTWAAICNELCYRVSQLFPDNFIGAAMLPQSPGVDPKTCIPELEKCVKEYGFVAINLNPDPSGGHWTSPPLTDRIWYPIYEKMVELEIPAMIHVSTSCNTCFHTTGAHYLNADTTAFMQCVAGDLFKDFPELKFVIPHGGGAVPYHWGRFRGLAQEMKKPLLEDHVLNNIFFDTCVYHQPGIDLLNTVIPVDNVLFASEMIGAVRGIDPRTGFYYDDTKRYIEASTILTPEEKQQIYEGNARRVYPRLDAALKAKGK
B13: 10 (protein, listed as Starkeya novella)
chain: MARKIALEEHFTTPELAGKYVARPTQSDALFADIERRLADFDELRLEMMDRAEIDLMVLSVTTPGVQGVRDTGEAIRLARGANDFLAREVQKRPSRYAGFAHLAMQDAEAAATELERAVRELGFRGALINGQTNGHYLDEDQYAPFWERVQELDVPVYLHPGNMADSPAMFAHRPELGGPIWAWTAETAAHALRLVFGGTFTRFPGAKVILGHMGETLPFLLWRLDSRREFDLGEKLAPDALPSAIIKRNIAVTTSGVCDPAPLVAALQALSDDNVMFSVDYPYEDPQLASKFIETAPIGEETRAKVCHGNAERLLGL
B14: 13 (protein, listed as Metarhizium acridum)
chain: MAHGKVALEEAFALPRLHEKTRWWASLFAVNPDKHAAEMTDITDIRINYMDKHGVGYTILSYTAPGVQDISDPKEAQALAVEINDYVAGAIKNHPDRFGAFATLSMRNPQEAATELKRCVTQYGFKGALVNDTQRAGEDDMIFYDGPEWDVFWSTVEELDVPFYLHPRNPTGSLYEKLWAKRKWLVGPPLSFAQGVSLHVLGMVTNGVFDRHPKLQVVLGHLGEHIPFDMWRINHWFEDVKKPLGLDCKKTIREYFQQNIWITTSGHFSTTTLQFCMAEVGADRILFSIDYPFECFADACDWYDGVPINLVDKAKIGRDNARRLFKLPEFKDSEKHVDA

Assays:
[1] = 14C assay with IPTG-induced recombinant E. coli cells: 14CO2 captured from [14C]-carboxyl-labeled dicamba; details: for Enzymatic Detection level: dicamba decarboxylation activity of the protein of the given SEQ ID NO, High / Low / No; for Dicamba Decarboxylase Activity: induced recombinant E. coli cells, [14C]-carboxyl-labeled dicamba, 14CO2 capture
[2] = Saturation mutagenesis of SEQ ID NO:109: dicamba decarboxylation activity of point mutants (carbon dioxide released); details: decarboxylation activity (carbon dioxide released) of point mutant compared with unmutated backbone protein; backbone SEQ ID NO: 109

Row | Molecule | Enzymatic Detection level [1] | Dicamba Decarboxylase Activity [1] | Fold Activity [2]
1 | B1 | No | No | 0.9
2 | B2 | No | No | 1.7
3 | B3 | No | No | 0.9
4 | B4 | No | No | 0.8
5 | B5 | Low | Low | 1.3
6 | B6 | No | No | 1.8
7 | B7 | No | No | 1.2
8 | B8 | No | No | 2.1
9 | B9 | No | No | 2.6
10 | B10 | Low | Low | 1
11 | B11 | No | No | 1.3
12 | B12 | No | No | 1.7
13 | B13 | Low | Low | 1.2
14 | B14 | No | No | 1
